Data taken from US6068841.

Molecular target: mouse Fas on mouse hepatic parenchymal cells (mouse) (UniProt P25446)

## anti-mouse Fas antibody (Jo-2; product of Phar-Mingen Co.)
  Viability (%) of mouse hepatic parenchymal cells (ALAMAR BLUE fluorescence): 99%
